From US20190359693A1

Molecular target: hemagglutinin (HA) of influenza virus H3N? A/Env/MPJ193/09 (influenza A virus)
Assay: cell-based or functional assay

B1: MD2407 (bispecific antibody)
chain: EVQLVESGGGLVQPGGSLRLSCAVSISIFDIYAMDWYRQAPGKQRDLVATSFRDGSTNYADSVKGRFTISRDNAKNTLYLQMNSLKPEDTAVYLCHVSLYRDPLGVAGGMGVYWGKGALVTVSSGGGGSGGGGSEVQLVESGGGLVQAGGSLKLSCAASGRTYAMGWFRQAPGKEREFVAHINALGTRTYYSDSVKGRFTISRDNAKNTEYLEMNNLKPEDTAVYYCTAQGQWRAAPVAVAAEYEFWGQGTQVTVSSGGGGSGGGGSEVQLVESGGGLVQPGGSLRLSCAATGFTLENKAIGWFRQTPGSEREGVLCISKSGSWTYYTDSMRGRFTISRDNAENTVYLQMDSLKPEDTAVYYCATTTAGGGLCWDGTTFSRLASSWGQGTQVTVSSGGGGSGGGGSEVQLVESGGGLVQPGGSLKLSCAASGFTFSTSWMYWLRQAPGKGLEWVSVINTDGGTYYADSVKDRFTISRDNAKDTLYLQMSSLKSEDTAVYYCAKDWGGPEPTRGQGTQVTVSS
- average neutralization titer: 24.5 nM
